Target: the molecule itself
Assay: cryo-EM structure; purified cSID1 in 25 mM HEPES pH 7.4, 150 mM NaCl, 0.01% GDN; apo and mixed with 100 uM 50-bp dsRNA; C2 symmetry imposed (the dsRNA complex also refined in C1)

B1: Caenorhabditis elegans systemic RNAi-defective protein 1 (SID1) (natural protein, UniProt Q9GZC8 18-776, looked up)
chain: QNNSTTPSPIITSSNSSVLVFEISSKMKMIEKKLEANTVHVLRLELDQSFILDLTKVAAEIVDSSKYSKEDGVILEVTVSNGRDSFLLKLPTVYPNLKLYTDGKLLNPLVEQDFGAHRKRHRIGDPHFHQNLIVTVQSRLNADIDYRLHVTHLDRAQYDFLKFKTGQTTKTLSNQKLTFVKPIGFFLNCSEQNISQFHVTLYSEDDICANLITVPANESIYDRSVISDKTHNRRVLSFTKRADIFFTETEISMFKSFRIFVFIAPDDSGCSTNTSRKSFNEKKKISFEFKKLENQSYAVPTALMMIFLTTPCLLFLPIVINIIKNSRKLAPSQSNLISFSPVPSEQRDMDLSHDEQQNTSSELENNGEIPAAENQIVEEITAENQETSVEEGNREIQVKIPLKQDSLSLHGQMLQYPVAIILPVLMHTAIEFHKWTTSTMANRDEMCFHNHACARPLGELRAWNNIITNIGYTLYGAIFIVLSICRRGRHEYSHVFGTYECTLLDVTIGVFMVLQSIASATYHICPSDVAFQFDTPCIQVICGLLMVRQWFVRHESPSPAYTNILLVGVVSLNFLISAFSKTSYVRFIIAVIHVIVVGSICLAKERSLGSEKLKTRFFIMAFSMGNFAAIVMYLTLSAFHLNQIATYCFIINCIMYLMYYGCMKVLHSERITSKAKLCGALSLLAWAVAGFFFFQDDTDWTRSAAASRALNKPCLLLGFFGSHDLWHIFGALAGLFTFIFVSFVDDDLINTRKTSINIF
modifications: N-linked glycans (three glycosylation sites observed in BRD2)
notes: signal peptide in the construct; full-length cDNA in pCAG; His6 and FLAG tags were inserted after the signal peptide; also called cSID1; apo-cSID1; source: HEK293F, transiently transfected (pCAG), purified (anti-FLAG M2, Ni-NTA, SEC in GDN)
stoichiometry N: 2

— article PMC11194109, “Structural basis for double-stranded RNA recognition by SID1” (Nucleic Acids Research, 2024)
